This test deals with T1, VEGF_(34-121), 88-residue VEGF fragment displayed on S. carnosus (Homo sapiens).
T1 chain: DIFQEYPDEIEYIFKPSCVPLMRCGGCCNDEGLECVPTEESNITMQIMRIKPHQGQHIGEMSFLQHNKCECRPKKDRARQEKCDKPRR
Put plainly: flow cytometry on cells. A general note: A flow cytometer gives signals particle by particle.

B1: Avastin (antibody, V domains shown)
VH: EVQLVESGGGLVQPGGSLRLSCAASGYTFTNYGMNWVRQAPGKGLEWVGWINTYTGEPTYAADFKRRFTFSLDTSKSTAYLQMNSLRAEDTAVYYCAKYPHYYGSSHWYFDVWGQGTLVTVSS
VL: DIQMTQSPSSLSASVGDRVTITCSASQDISNYLNWYQQKPGKAPKVLIYFTSSLHSGVPSRFSGSGSGTDFTLTISSLQPEDFATYYCQQYSTVPWTFGQGTKVEIK
For the molecule B1, the binding result is “binds”.
